Laboratory results reported in patent US20040014148A1 (RIGEL PHARMACEUTICALS, published 2004).
No end group written: not given here.

Columns and labels:
[1] = target: T1, human chloride intracellular channel 1 (human, UniProt O00299 1-241); assay: cell-based or functional assay
[2] = target: T1, human chloride intracellular channel 1; assay: cell-based or functional assay; remark: listed apart in the source

Row | Binder | Reporter Ratio (A5T4 reporter line, IL-4 induced germline epsilon transcription) [1] | endogenous epsilon inhibition ratio (TAQMAN quantitative PCR, +IL-4/+Dox to +IL-4/-Dox) [2] | reporter ratio (original library clone screen, A5T4 cells) [2]
1 | LYTSILLHGATTASMTKPLA (also: expressed as BFP fusion (BFP, alpha-helical linker, peptide) in GAL4 bait vector, fusion sequences not given here) [peptide DL03wt] | 1.5 | 2.11 | 1.32
2 | LYTSAALHGATTASMTKPLA [peptide DL03IL] | 1.16 |  | 

Results, then the binder that gave them:

Row | Reporter Ratio (A5T4 reporter line, IL-4 induced germline epsilon transcription) [1] | endogenous epsilon inhibition ratio (TAQMAN quantitative PCR, +IL-4/+Dox to +IL-4/-Dox) [2] | reporter ratio (original library clone screen, A5T4 cells) [2] | Binder
3 | 1.77 |  |  | LYTSILLHGATTASMTAALA [peptide DL03KP]
4 | 1.22 |  |  | LYTSILLHGATTASMTKPAR [peptide DL03LA]
